To fix the notation:
T1: human beta-Klotho (Homo sapiens, UniProt Q86Z14)
T1 sequence (Q86Z14 1-1044): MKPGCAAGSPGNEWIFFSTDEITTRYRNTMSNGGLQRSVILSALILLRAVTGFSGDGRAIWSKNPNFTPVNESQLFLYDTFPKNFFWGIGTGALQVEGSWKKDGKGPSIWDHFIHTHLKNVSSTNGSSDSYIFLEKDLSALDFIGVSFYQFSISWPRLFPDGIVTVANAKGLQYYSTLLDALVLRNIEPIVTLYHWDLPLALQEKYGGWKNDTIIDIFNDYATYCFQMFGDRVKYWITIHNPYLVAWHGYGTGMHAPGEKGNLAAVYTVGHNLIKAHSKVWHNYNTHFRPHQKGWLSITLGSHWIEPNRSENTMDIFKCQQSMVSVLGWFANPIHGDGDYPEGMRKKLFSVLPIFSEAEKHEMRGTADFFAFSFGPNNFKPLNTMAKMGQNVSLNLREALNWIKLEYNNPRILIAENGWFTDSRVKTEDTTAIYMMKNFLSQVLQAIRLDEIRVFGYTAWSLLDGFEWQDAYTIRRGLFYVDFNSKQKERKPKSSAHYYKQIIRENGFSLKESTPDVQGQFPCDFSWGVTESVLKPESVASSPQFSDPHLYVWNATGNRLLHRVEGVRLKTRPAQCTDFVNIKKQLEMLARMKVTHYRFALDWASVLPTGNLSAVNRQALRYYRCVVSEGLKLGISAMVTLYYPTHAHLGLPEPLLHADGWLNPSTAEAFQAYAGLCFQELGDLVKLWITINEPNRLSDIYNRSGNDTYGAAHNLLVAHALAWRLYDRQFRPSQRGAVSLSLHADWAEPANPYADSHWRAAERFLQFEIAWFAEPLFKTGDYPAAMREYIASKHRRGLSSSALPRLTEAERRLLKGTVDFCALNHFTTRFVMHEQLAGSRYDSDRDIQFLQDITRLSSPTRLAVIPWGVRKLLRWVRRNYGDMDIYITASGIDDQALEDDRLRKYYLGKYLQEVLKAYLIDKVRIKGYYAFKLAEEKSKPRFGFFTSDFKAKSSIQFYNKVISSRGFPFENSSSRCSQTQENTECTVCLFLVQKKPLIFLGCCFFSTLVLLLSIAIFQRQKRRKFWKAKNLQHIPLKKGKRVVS

B1: Ab0344: IgG4 PE; 16H7 VL (N25S, D49A, D50A, D91E, N93S); 16H7 VH (M34V, I83T, D109E) (antibody)
VH: QVTLKESGPVLVKPTETLTLTCTVSGFSLNNARVGVSWIRQPPGKALEWLAHIFSNDEKSYSTSLKSRLTISKDTSKSQVVLTMTNMDPVDTATYYCARSVVTGGYYYEGMDVWGQGTTVTVSS
light: SYVLTQPPSVSVAPGQTARITCGGSNIGSESVHWYQQKPGQAPVLVVYAASDRPSGIPERFSGSNSGNTATLTISRVEAGDEADYYCQVWEGSSDHVVFGGGTKLTVLGQPKANPTVTLFPPSSEELQANKATLVCLISDFYPGAVTVAWKADGSPVKAGVETTKPSKQSNNKYAASSYLSLTPEQWKSHRSYSCQVTHEGSTVEKTVAPTECS
B2: Ab0358: IgG4 PE; 16H7 VL (N25S, D49E, D50A, D91H, N93S); 16H7 VH (M34V, I83T, D109E) (antibody)
VH: B1 VH
light: B1 light with A49E, E91H
B3: Ab0356: IgG4 PE; 16H7 VL (N25S, D49E, D50A, D91A, N93S); 16H7 VH (M34V, I83T, D109E) (antibody)
VH: B1 VH
light: B1 light with A49E, E91A
B4: Ab0346: IgG4 PE; 16H7 VL (N25S, D49A, D50H, D91A, N93S); 16H7 VH (M34V, I83T, D109E) (antibody)
VH: B1 VH
light: B1 light with A50H, E91A
B5: Ab0348: IgG4 PE; 16H7 VL (N25S, D49E, D50E, D91T, N93E); 16H7 VH (M34V, I83T, D109E) (antibody)
VH: B1 VH
light: B1 light with A49E, A50E, E91T, S93E
B6: Ab0360: IgG4 PE; 16H7 VL (N25S, D49E, D50H, D91E, N93S); 16H7 VH (M34V, I83T, D109E) (antibody)
VH: B1 VH
light: B1 light with A49E, A50H
B7: Ab0298: IgG4 PE; 16H7 VL (N25S, D49Y, D50E); 16H7 VH (M34V, I83T, D109E) (antibody)
VH: B1 VH
light: B1 light with A49Y, A50E, E91D, S93N
B8: Ab0352: IgG4 PE; 16H7 VL (N25S, D49E, D50E, D91E, N93S); 16H7 VH (M34V, I83T, D109E) (antibody)
VH: B1 VH
light: B1 light with A49E, A50E
B9: Ab0312: IgG4 PE; 16H7 VL (N25S, D49Y, D50E, N93E); 16H7 VH (M34V, I83T, D109E) (antibody)
VH: B1 VH
light: B1 light with A49Y, A50E, E91D, S93E
B10: Ab0349: IgG4 PE; 16H7 VL (N25S, D49E, D50E, D91T, N93S); 16H7 VH (M34V, I83T, D109E) (antibody)
VH: B1 VH
light: B1 light with A49E, A50E, E91T
B11: Ab0347: IgG4 PE; 16H7 VL (N25S, D49A, D50S, D91A, N93S); 16H7 VH (M34V, I83T, D109E) (antibody)
VH: B1 VH
light: B1 light with A50S, E91A
B12: Ab0354: IgG4 PE; 16H7 VL (N25S, D49E, D50E, D91H, N93S); 16H7 VH (M34V, I83T, D109E) (antibody)
VH: B1 VH
light: B1 light with A49E, A50E, E91H
B13: Ab0361: IgG4 PE; 16H7 VL (N25S, D49E, D50S, D91E, N93S); 16H7 VH (M34V, I83T, D109E) (antibody)
VH: B1 VH
light: B1 light with A49E, A50S
B14: Ab0357: IgG4 PE; 16H7 VL (N25S, D49E, D50A, D91E, N93S); 16H7 VH (M34V, I83T, D109E) (antibody)
VH: B1 VH
light: B1 light with A49E
B15: Ab0350: IgG4 PE; 16H7 VL (N25S, D49E, D50E, D91A, N93S); 16H7 VH (M34V, I83T, D109E) (antibody)
VH: B1 VH
light: B1 light with A49E, A50E, E91A
B16: Ab0345: IgG4 PE; 16H7 VL (N25S, D49A, D50A, D91E, N93A); 16H7 VH (M34V, I83T, D109E) (antibody)
VH: B1 VH
light: B1 light with S93A
B17: Ab0355: IgG4 PE; 16H7 VL (N25S, D49E, D50Y, D91E, N93S); 16H7 VH (M34V, I83T, D109E) (antibody)
VH: B1 VH
light: B1 light with A49E, A50Y
B18: Ab0359: IgG4 PE; 16H7 VL (N25S, D49E, D50H, D91A, N93S); 16H7 VH (M34V, I83T, D109E) (antibody)
VH: B1 VH
light: B1 light with A49E, A50H, E91A
B19: Ab0353: IgG4 PE; 16H7 VL (N25S, D49E, D50E, D91E, N93A); 16H7 VH (M34V, I83T, D109E) (antibody)
VH: B1 VH
light: B1 light with A49E, A50E, S93A

Residue numbers refer to the chain shown, from its start. Numbers in names are those of the source.

The target of the experiment is T1, human beta-Klotho. Description: SPR off-rate screening of antibody mutants (human beta-Klotho captured by anti-His antibody). Format: binding. Particulars: mean, n=3. Summed up:
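His-tagged human beta-Klotho captured by immobilized anti-His antibody on a CM5 chip; antibody mutants injected at 50 nmol/L, 240 s association and 300 s dissociation. Off-rates (kd) obtained by single exponential fitting.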
Consider B1, for which the “koff human KLB” value was found to be 0.00168 s⁻¹.

Regarding B2, the “koff human KLB” value came out at 0.0004541 s⁻¹.

Consider B3, for which the “koff human KLB” value was “invalid fit”.

For the molecule B4, the “koff human KLB” value was “invalid fit”.

Take B5: the “koff human KLB” value is given as “invalid fit”.

With B6, the “koff human KLB” value came to 0.00192 s⁻¹.

Take B7: the “koff human KLB” value came out at 0.0016 s⁻¹.

In the case of B8, the “koff human KLB” value turned out to be 0.0004194 s⁻¹.

As to B9, the “koff human KLB” value stood at 0.0005302 s⁻¹.

B10: the “koff human KLB” value is “invalid fit”.

Take B11: the “koff human KLB” value is “invalid fit”.

For the molecule B12, the “koff human KLB” value was 0.00158 s⁻¹.

On to B13, for which the “koff human KLB” value was 0.00163 s⁻¹.

On to B14, for which the “koff human KLB” value was found to be 0.00185 s⁻¹.

With B15, the “koff human KLB” value is given as “invalid fit”.

As to B16, the “koff human KLB” value turned out to be 0.00188 s⁻¹.

Regarding B17, the “koff human KLB” value was 0.00195 s⁻¹.

Regarding B18, the “koff human KLB” value is “invalid fit”.

With B19, the “koff human KLB” value came to 0.0003799 s⁻¹.

The values above are taken from patent publication US20250115669A1, “FGFR1/KLB Targeting Agonistic Antigen-Binding Proteins and Conjugates Thereof with GLP-1R Agonistic Peptides” (SANOFI, priority 2020, published 2025).
